Target: biotinylated mouse Izumo1Cd4d3+4 (entire ectodomain, bait form) (mouse) (UniProt Q9D9J7)
Experiment: SPR

UniProt Q9D9J7, sequence (Q9D9J7 22-319): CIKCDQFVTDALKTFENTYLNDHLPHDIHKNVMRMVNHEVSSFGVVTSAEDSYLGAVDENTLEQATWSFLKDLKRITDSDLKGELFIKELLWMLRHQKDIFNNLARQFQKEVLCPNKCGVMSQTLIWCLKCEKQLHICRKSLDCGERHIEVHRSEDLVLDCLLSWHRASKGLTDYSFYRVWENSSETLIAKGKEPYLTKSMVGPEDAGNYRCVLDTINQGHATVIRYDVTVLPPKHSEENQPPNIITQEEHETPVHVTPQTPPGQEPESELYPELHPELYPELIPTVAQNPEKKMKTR

mouse JunoCd4d3+4-6His (purified soluble Juno ectodomain) (from UniProt Q9EQF4 20-222) (domain or fragment)
Kd: 12 µM

Source: PMC3998876
